In patent US20070190601:
Where a chain is given by its changes, count along the chain named.

Assays:
Assay in all cases: cell_activity
[1] = tested on: T1, int-NLS234 insertion PPKKKRKVE between G and S at position 234 (SEQ 61) (Streptomyces phage phiC31); settings: DF-1 cells; 84 colonies avg
T1 sequence: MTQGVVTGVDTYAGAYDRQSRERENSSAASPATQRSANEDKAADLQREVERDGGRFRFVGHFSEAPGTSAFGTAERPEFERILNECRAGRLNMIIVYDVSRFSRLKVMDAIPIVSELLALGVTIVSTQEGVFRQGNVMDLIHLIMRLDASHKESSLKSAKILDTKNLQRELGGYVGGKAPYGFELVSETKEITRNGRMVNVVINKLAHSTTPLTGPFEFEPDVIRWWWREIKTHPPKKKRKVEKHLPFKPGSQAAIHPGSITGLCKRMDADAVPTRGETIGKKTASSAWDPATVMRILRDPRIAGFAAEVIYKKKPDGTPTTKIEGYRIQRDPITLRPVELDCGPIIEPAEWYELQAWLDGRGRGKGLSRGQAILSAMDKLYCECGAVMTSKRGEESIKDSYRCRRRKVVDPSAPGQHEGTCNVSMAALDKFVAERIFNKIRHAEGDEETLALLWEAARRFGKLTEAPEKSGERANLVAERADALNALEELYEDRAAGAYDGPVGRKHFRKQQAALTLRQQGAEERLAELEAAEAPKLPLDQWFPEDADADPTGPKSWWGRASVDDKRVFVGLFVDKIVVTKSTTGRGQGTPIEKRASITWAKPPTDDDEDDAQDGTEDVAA

[2] = tested on: T2, 3rdGTG-int-NLS PKKKRKV appended after A605 (Streptomyces phage phiC31); settings: DF-1 cells; 10 colonies, one experiment
T2 sequence: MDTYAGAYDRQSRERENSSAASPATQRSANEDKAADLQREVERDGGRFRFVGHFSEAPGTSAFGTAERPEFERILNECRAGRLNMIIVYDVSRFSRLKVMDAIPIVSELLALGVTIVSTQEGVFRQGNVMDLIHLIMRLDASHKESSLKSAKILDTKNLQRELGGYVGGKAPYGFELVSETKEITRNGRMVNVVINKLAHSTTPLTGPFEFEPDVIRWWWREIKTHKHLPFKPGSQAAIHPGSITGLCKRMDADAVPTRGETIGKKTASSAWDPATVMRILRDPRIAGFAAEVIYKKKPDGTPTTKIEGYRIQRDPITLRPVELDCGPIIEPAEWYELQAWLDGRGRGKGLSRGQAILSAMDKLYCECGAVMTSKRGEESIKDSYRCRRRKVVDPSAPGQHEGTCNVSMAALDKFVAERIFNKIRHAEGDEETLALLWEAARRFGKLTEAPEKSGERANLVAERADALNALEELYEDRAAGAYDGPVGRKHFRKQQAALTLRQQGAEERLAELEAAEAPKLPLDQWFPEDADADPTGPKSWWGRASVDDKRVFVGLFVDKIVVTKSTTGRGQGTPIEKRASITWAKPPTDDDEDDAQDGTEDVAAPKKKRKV

[3] = tested on: T3, 3rdGTG-int-NLS234 insertion PPKKKRKVE between G and S at position 234 (SEQ 61) (Streptomyces phage phiC31); settings: DF-1 cells; 30 colonies avg
T3 sequence: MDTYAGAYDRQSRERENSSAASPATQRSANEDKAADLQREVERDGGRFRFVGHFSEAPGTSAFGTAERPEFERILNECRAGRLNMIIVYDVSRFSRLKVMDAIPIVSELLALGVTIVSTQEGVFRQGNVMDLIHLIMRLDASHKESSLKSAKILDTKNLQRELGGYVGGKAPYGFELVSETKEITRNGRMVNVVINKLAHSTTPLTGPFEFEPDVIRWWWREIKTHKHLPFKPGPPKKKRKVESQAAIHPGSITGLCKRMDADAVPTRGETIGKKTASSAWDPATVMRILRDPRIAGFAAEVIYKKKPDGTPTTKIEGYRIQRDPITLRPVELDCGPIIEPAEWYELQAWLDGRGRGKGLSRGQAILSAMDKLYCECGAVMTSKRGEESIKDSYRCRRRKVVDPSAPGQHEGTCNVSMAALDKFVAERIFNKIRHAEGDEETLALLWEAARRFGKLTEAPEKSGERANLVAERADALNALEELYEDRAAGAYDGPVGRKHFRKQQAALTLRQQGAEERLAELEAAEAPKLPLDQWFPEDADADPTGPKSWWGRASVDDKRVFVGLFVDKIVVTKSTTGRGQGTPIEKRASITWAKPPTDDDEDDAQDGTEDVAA

[4] = tested on: T4, 3rdGTG-int (+1 start) (Streptomyces phage phiC31); settings: DF-1 cells; 14 colonies avg
T4 sequence: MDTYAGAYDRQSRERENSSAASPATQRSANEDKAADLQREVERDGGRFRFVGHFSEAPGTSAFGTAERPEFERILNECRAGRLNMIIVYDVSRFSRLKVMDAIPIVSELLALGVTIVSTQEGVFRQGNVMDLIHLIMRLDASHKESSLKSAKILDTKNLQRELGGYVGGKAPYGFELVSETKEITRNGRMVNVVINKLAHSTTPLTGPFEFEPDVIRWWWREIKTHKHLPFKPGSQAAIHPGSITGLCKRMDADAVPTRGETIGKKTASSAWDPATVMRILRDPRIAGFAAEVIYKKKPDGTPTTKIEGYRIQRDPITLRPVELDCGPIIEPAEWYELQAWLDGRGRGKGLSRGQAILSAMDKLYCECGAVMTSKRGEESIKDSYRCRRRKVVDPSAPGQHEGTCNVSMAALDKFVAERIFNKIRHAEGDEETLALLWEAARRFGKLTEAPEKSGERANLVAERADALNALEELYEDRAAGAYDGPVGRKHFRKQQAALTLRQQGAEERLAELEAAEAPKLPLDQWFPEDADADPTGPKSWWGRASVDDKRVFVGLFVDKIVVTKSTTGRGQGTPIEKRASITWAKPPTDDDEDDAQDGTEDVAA

[5] = tested on: T5, NLS-int-1 N-terminal MTQGVVTG replaced with MEPKKKRK (SEQ 57), joined at +1 V (Streptomyces phage phiC31); settings: DF-1 cells; 2.5 colonies avg, background level; reflects recombination activity, not binding
T5 sequence: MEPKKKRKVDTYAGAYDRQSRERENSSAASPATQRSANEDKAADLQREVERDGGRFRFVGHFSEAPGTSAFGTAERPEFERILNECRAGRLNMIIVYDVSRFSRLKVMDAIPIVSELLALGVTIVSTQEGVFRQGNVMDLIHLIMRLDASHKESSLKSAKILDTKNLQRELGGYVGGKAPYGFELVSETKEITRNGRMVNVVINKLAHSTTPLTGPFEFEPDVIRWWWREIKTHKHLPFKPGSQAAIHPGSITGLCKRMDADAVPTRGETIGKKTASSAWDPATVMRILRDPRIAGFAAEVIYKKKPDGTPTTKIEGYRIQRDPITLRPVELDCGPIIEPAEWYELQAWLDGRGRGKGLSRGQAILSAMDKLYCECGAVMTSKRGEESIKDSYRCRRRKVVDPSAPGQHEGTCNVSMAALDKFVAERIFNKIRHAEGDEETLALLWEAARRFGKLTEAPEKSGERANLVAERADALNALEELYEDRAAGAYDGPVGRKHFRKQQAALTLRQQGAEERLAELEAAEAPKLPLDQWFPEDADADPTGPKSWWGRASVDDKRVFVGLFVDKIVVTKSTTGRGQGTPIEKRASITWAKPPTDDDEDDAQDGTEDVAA

[6] = tested on: T6, c-myc-NLS-int N-terminal MTQGVVT replaced with MAPAAKRLKLDSL (SEQ 59), NLS joined at -1 G (Streptomyces phage phiC31); settings: DF-1 cells; 56.2 colonies avg
T6 sequence: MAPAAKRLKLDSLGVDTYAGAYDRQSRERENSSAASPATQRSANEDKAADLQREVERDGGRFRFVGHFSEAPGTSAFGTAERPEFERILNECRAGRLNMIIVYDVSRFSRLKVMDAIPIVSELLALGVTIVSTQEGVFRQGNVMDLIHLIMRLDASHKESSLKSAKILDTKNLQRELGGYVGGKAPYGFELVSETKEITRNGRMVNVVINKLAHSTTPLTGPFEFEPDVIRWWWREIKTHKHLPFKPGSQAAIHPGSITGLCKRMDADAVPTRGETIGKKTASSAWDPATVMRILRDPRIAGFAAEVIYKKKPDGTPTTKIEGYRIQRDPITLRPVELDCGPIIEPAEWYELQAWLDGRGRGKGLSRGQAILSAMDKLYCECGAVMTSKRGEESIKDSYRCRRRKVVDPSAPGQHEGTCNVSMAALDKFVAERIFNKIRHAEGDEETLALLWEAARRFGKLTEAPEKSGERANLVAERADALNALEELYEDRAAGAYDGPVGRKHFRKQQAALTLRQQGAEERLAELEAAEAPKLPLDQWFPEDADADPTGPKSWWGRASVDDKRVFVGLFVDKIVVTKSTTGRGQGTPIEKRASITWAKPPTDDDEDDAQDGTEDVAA

[7] = tested on: T7, NLS-int-2 MEPKKKRKV added upstream of -8 M (SEQ 58) (Streptomyces phage phiC31); settings: DF-1 cells; 6 colonies avg
T7 sequence: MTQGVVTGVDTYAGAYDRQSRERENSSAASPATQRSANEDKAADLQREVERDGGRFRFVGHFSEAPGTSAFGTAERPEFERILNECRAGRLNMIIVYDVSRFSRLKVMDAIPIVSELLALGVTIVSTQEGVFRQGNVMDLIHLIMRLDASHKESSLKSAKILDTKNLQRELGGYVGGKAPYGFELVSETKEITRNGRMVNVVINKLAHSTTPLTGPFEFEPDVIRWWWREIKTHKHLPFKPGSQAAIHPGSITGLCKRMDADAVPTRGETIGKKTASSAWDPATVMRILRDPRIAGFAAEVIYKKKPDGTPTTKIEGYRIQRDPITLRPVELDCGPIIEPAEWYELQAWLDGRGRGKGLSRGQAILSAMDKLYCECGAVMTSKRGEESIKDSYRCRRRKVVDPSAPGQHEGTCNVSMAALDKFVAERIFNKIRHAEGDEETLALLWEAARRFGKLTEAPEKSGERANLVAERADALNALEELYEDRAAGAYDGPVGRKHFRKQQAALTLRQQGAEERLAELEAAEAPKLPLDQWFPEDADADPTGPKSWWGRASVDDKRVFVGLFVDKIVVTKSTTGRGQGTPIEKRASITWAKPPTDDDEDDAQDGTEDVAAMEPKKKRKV

[8] = tested on: T8, phiC31 integrase (wild type, -8 ATG start) (Streptomyces phage phiC31); settings: integration of pCMV-pur-attB into chicken DF-1 genome pseudo-attP sites; 103.8 colonies avg
T8 sequence: T5 sequence with E2T, P3Q, K4G, K5V, K6V, R7T, K8G

phiC31 attB (donor plasmid)
activity (fold over no integrase) [1]: 32.3 | activity (fold over no integrase) [2]: 3.8 | activity (fold over no integrase) [3]: 11.5 | activity (fold over no integrase) [4]: 5.4 | activity (fold over no integrase) [5]: 1 | activity (fold over no integrase) [6]: 21.6 | activity (fold over no integrase) [7]: 2.3 | activity (fold over no integrase) [8]: 39.9
